The target of experiment [1] is human TIGIT expressed on cells (stably transfected Jurkat cells) (human) (UniProt Q495A1). The experiment can be described thus: cell-based or functional assay.
Experiment [2] deals with recombinant cynomolgus TIGIT (cynomolgus monkey). The experiment can be described thus: ELISA on recombinant cyno-TIGIT. On the technique in general: An ELISA detects its analyte on a solid surface through an enzyme-linked reagent.
Experiment [3] concerns the target recombinant human TIGIT extracellular domain (ECD) (human) (UniProt Q495A1). The experiment can be described thus: ELISA on recombinant human TIGIT ECD.
Experiment [4] deals with human TIGIT expressed on cells (stably transfected Jurkat cells) (human) (UniProt Q495A1). The experiment in a line: whole cell binding, flow cytometry, n=3 (FIG. 10A). For orientation: In flow cytometry, cells or beads pass a laser one at a time.
For experiment [5] the target is unchanged. The experiment in a line: flow cytometry on h-TIGIT transfected Jurkat cells (whole cell binding), Alexa Fluor 488; representative of three experiments.
The target in experiment [6] is recombinant mouse TIGIT (mouse) (UniProt P86176). The experiment in a line: ELISA on recombinant mouse-TIGIT.
Chain of recombinant mouse TIGIT (mouse) (P86176 29-148 limits assumed): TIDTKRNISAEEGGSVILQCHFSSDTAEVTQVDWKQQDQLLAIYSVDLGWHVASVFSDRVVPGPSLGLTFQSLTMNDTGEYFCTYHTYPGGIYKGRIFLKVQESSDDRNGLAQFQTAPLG

Chain of human TIGIT expressed on cells (stably transfected Jurkat cells) (human) (Q495A1 22-244 limits assumed): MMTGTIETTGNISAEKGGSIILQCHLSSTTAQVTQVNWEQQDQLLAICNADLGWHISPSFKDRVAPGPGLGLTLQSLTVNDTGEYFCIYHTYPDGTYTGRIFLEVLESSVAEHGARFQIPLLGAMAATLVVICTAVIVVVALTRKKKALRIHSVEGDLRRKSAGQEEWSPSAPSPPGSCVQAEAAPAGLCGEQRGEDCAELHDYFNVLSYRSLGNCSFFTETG
Chain of recombinant human TIGIT extracellular domain (ECD) (human) (Q495A1 22-138 limits assumed): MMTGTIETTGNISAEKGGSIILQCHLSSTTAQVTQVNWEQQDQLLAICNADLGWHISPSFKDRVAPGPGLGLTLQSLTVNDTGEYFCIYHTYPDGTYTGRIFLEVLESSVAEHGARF

Regarding “Reference Ab 2 (same amino acid sequences as Tiragolumab) (antibody)”, the EC50, NFAT luciferase reporter assay (n=3) in experiment [1] amounted to 0.72 nM. Also, the results for the EC50 (read off the curve) in experiment [2], in experiment [3] and in experiment [5] were 0.1 µg/mL, 0.1 µg/mL and 0.5 nM, respectively. This substance also showed a concentration for a half-maximal effect (EC50) in experiment [4] of 0.61 nM.
Turning to “anti-mouse TIGIT reference antibody (Biolegend #142101)”, in experiment [6], the EC50 (read off the curve) was determined as 0.08 µg/mL.

By EC50 (read off the curve) is commonly meant the concentration giving half of the maximal effect. For orientation: EC50 means the concentration that produces a half-maximal response. Read a low EC50 as a more potent agent.

Values taken from patent US20230060388A1.
